Experiment [1] deals with T1, SARS-CoV-2 spike (S) protein peptide on HLA-DPA1*01:03 / HLA-DPB1*04:01 (human).
T1 peptide: TFEYVSQPFLMDLE
The experiment is described as follows: multimer staining.

Experiment [2] deals with T2, SARS-CoV-2 spike (S) protein peptide on HLA-DPA1*01:03 / HLA-DPB1*04:01 (human).
T2 peptide: TFEYVSQPFLMDLE
The experiment is described as follows: multimer staining.

In experiment [3] the target is T3, SARS-CoV-2 spike (S) protein peptide on HLA-DPA1*01:03 / HLA-DPB1*04:01 (human).
T3 peptide: CTFEYVSQPFLMDLE
Put plainly: activation reporter or marker.

B1: TCR4.1 (TCR)
alpha TRAV35 TRAJ42 CDR3: CAGMNYGGSQGNLIF
beta TRBV4-1 TRBJ1-2 CDR3: CASSQGVGYTF
For the molecule B1, the binding result in experiment [1], in experiment [2] and in experiment [3] was “recognises” throughout.

B2: TCR6.3 (TCR)
alpha TRAV35 TRAJ42 CDR3: CAGMNYGGSQGNLIF
beta TRBV6-3 TRBJ1-2 CDR3: CASSYRGAYGYTF
As to B2, the binding result in experiment [1] and in experiment [3] was “recognises” in each case.

The values above are taken from article PMC8695127 (2021).
